As a reminder, the Kd is the concentration at which binding is half-saturated. Lower therefore signals a tighter complex.

Here are results for one molecule from paper PMC5887309.

The target in this data set is DNMT3AC R882H (human, UniProt Q9Y6K1 612-912, R882H). Description: fluorescence anisotropy. In general terms: Fluorescence polarisation rises when a labelled molecule tumbles more slowly, as on binding a larger partner.
DNMT3AC R882H, sequence (Q9Y6K1 612-912 R882H): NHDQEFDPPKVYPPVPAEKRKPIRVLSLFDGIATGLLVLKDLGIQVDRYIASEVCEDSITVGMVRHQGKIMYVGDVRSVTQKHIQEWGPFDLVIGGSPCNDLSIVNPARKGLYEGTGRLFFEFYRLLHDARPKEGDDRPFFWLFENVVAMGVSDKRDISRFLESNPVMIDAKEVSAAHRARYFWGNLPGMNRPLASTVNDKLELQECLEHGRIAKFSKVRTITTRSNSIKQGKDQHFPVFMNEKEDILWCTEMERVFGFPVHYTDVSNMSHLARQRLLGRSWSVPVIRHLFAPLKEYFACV

B1: Cy5-labeled 29mer with two CpG sites (dsDNA)
DNA 1: ACTTGCAACGGTCCTAACCGTCACCTCTT
DNA 2: AAGAGGTGACGGTTAGGACCGTTGCAAGT
As for B1, the Kd is 209 ± 19 nM.
